Data on 18 molecules can be found in patent publication US20210121563A1 (Novartis, published 2021).

To fix the notation:
B1: BAP049-hum16 (antibody, human IgG4 S228P, kappa, V domains shown)
VH: EVQLVQSGAEVKKPGESLRISCKGSGYTFTTYWMHWVRQAPGQGLEWMGNIYPGTGGSNFDEKFKNRFTISRDNSKNTLYLQMNSLRAEDTAVYYCTRWTTGTGAYWGQGTTVTVSS
VL: EIVLTQSPDFQSVTPKEKVTITCKSSQSLLDSGNQKNFLTWYQQKPGQAPRLLIYWASTRESGVPSRFSGSGSGTDFTFTISSLEAEDAATYYCQNDYSYPYTFGQGTKVEIKR
notes: also called Clone No. 16
B2: BAP049-hum03 (antibody, human IgG4 S228P, kappa, V domains shown)
VH: B1 VH with V37I, A40S, G42S, Q43R, M48L
VL: DIQMTQSPSSLSASVGDRVTITCKSSQSLLDSGNQKNFLTWYQQKPGQAPRLLIYWASTRESGIPPRFSGSGYGTDFTLTINNIESEDAAYYFCQNDYSYPYTFGQGTKVEIKR
notes: also called Clone No. 3
B3: BAP049-hum10 (antibody, human IgG4 S228P, kappa)
heavy: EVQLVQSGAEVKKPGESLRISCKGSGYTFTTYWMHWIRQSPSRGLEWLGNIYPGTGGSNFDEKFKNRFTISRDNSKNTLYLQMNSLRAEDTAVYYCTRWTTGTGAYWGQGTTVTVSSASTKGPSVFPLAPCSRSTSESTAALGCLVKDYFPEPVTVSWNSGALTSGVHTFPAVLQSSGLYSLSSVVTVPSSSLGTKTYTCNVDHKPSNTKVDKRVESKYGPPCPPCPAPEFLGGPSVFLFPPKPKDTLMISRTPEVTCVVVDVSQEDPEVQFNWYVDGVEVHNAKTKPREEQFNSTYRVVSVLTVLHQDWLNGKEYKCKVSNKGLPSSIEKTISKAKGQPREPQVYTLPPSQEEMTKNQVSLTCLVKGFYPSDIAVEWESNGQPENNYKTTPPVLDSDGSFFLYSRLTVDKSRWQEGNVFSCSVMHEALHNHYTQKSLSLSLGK
light: EIVLTQSPATLSLSPGERATLSCKSSQSLLDSGNQKNFLTWYQQKPGQAPRLLIYWASTRESGVPSRFSGSGSGTDFTFTISSLEAEDAATYYCQNDYSYPYTFGQGTKVEIKRTVAAPSVFIFPPSDEQLKSGTASVVCLLNNFYPREAKVQWKVDNALQSGNSQESVTEQDSKDSTYSLSSTLTLSKADYEKHKVYACEVTHQGLSSPVTKSFNRGEC
notes: also called humanized BAP049 clone hum10
B4: BAP049-hum15 (antibody, human IgG4 S228P, kappa)
heavy: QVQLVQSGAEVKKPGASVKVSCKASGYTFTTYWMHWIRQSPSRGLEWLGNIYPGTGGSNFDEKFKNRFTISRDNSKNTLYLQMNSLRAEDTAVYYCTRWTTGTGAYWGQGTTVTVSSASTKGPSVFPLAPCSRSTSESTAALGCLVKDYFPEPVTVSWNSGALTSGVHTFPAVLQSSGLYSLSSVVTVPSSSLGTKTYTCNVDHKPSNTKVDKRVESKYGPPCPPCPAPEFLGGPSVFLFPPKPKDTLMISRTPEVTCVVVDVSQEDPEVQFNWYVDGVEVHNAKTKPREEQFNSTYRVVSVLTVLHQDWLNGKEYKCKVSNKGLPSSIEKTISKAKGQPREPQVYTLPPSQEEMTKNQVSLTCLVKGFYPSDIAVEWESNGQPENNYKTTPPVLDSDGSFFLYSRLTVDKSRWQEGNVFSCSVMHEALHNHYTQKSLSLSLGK
light: B3 light with A9D, T10F, L11Q, L13V, S14T, G16K, R18K, A19V, L21I, S22T
notes: also called Clone No. 15
B5: BAP049-hum11 (antibody, human IgG4 S228P, kappa)
heavy: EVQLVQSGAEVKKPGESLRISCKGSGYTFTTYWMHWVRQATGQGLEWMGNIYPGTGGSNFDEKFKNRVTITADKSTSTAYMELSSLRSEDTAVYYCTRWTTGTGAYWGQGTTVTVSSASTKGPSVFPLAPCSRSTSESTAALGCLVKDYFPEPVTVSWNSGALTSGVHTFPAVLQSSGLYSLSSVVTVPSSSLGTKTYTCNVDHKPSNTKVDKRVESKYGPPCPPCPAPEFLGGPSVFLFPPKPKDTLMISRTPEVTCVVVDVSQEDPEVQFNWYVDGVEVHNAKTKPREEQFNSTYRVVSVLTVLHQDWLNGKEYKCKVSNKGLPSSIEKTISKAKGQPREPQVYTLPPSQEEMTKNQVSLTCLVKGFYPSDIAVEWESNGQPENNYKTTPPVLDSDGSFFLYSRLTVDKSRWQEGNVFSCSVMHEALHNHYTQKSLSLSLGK
light: B3 light
notes: also called humanized BAP049 clone hum11
B6: BAP049-hum14 (antibody, human IgG4 S228P, kappa)
heavy: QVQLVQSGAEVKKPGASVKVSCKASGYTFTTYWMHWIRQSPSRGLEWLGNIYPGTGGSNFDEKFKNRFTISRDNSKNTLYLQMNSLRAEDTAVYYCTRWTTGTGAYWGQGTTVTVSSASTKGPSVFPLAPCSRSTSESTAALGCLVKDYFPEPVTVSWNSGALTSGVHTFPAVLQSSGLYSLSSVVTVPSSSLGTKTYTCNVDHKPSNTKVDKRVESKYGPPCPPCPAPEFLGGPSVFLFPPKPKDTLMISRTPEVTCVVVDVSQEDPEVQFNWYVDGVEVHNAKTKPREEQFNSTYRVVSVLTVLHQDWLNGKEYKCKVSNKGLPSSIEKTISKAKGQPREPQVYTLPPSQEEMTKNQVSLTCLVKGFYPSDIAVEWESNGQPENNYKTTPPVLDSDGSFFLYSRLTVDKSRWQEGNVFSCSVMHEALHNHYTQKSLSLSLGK
light: B3 light
notes: also called Clone No. 14
B7: BAP049-hum08 (antibody, human IgG4 S228P, kappa)
heavy: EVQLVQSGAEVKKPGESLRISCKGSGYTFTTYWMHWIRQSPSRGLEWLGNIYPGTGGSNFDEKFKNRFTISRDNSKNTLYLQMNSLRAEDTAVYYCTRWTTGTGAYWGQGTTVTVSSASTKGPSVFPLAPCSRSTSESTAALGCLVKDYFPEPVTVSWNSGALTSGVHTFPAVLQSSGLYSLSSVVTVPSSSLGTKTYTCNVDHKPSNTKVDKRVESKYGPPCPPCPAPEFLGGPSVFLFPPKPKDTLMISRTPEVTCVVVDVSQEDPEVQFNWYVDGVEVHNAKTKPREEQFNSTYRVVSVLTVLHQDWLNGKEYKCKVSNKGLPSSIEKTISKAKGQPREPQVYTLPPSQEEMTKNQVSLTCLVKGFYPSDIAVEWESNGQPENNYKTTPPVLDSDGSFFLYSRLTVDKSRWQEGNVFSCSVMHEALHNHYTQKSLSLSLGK
light: B3 light with A9D, T10F, L11Q, L13V, S14T, G16K, R18K, A19V, L21I, S22T
notes: also called humanized BAP049 clone hum08
B8: BAP049-hum06 (antibody, human IgG4 S228P, kappa)
heavy: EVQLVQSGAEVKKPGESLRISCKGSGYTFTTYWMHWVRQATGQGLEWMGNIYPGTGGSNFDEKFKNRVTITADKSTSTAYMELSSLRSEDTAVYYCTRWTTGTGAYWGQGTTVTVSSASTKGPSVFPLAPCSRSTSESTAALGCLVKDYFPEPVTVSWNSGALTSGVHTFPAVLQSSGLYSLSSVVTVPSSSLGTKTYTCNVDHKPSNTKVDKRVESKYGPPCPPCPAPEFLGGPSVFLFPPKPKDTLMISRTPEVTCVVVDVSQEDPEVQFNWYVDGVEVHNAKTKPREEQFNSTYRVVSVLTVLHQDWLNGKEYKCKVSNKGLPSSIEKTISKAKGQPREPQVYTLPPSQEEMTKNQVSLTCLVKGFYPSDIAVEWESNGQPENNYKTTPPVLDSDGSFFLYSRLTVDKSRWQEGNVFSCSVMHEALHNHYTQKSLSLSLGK
light: DIVMTQTPLSLPVTPGEPASISCKSSQSLLDSGNQKNFLTWYQQKPGQAPRLLIYWASTRESGVPSRFSGSGSGTDFTFTISSLEAEDAATYYCQNDYSYPYTFGQGTKVEIKRTVAAPSVFIFPPSDEQLKSGTASVVCLLNNFYPREAKVQWKVDNALQSGNSQESVTEQDSKDSTYSLSSTLTLSKADYEKHKVYACEVTHQGLSSPVTKSFNRGEC
notes: also called Clone No. 6
B9: BAP049-hum07 (antibody, human IgG4 S228P, kappa)
heavy: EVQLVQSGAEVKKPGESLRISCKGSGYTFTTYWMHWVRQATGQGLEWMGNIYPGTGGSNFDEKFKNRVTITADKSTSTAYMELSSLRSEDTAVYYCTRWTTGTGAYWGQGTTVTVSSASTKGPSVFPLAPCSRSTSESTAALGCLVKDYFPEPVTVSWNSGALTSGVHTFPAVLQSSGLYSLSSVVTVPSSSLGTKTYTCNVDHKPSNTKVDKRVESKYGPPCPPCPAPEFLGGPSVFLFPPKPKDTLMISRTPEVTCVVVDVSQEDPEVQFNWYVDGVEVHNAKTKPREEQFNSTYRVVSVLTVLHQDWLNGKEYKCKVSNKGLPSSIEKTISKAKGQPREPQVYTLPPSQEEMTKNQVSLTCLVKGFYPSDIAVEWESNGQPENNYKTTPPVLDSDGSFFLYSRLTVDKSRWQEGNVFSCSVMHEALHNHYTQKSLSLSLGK
light: B3 light with Q48K, R51K
notes: also called Clone No. 7
B10: BAP049-hum04 (antibody, human IgG4 S228P, kappa, V domains shown)
VH: B1 VH with V37I, A40S, G42S, Q43R, M48L
VL: EIVLTQSPATLSLSPGERATLSCKSSQSLLDSGNQKNFLTWYQQKPGKAPKLLIYWASTRESGVPSRFSGSGSGTDFTFTISSLQPEDIATYYCQNDYSYPYTFGQGTKVEIKR
notes: also called Clone No. 4
B11: BAP049-hum09 (antibody, human IgG4 S228P, kappa)
heavy: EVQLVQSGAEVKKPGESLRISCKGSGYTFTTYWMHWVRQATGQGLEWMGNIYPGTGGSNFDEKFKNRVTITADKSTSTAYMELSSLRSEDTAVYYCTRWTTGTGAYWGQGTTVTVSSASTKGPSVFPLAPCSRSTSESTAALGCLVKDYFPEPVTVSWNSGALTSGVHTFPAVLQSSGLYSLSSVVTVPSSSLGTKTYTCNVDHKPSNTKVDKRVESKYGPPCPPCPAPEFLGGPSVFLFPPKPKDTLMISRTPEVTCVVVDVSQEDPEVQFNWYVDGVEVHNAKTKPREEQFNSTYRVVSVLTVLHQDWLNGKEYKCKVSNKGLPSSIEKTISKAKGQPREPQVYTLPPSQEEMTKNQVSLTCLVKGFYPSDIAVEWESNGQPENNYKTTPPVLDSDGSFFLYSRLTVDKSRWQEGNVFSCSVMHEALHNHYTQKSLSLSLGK
light: B3 light with A9D, T10F, L11Q, L13V, S14T, G16K, R18K, A19V, L21I, S22T
notes: also called humanized BAP049 clone hum09
B12: BAP049-hum05 (antibody, human IgG4 S228P, kappa, V domains shown)
VH: EVQLVQSGAEVKKPGESLRISCKGSGYTFTTYWMHWVRQATGQGLEWMGNIYPGTGGSNFDEKFKNRVTITADKSTSTAYMELSSLRSEDTAVYYCTRWTTGTGAYWGQGTTVTVSS
VL: B10 VL
notes: also called humanized BAP049 clone hum05
B13: BAP049-hum01 (antibody, human IgG4 S228P, kappa, V domains shown)
VH: B12 VH
VL: B10 VL with K48Q, K51R, D76E, F79L, E87D, I89F
notes: also called humanized BAP049 clone hum01
B14: BAP049-hum02 (antibody, human IgG4 S228P, kappa, V domains shown)
VH: B12 VH
VL: B2 VL
notes: also called Clone No. 2
B15: BAP049-hum12 (antibody, human IgG4 S228P, kappa, V domains shown)
VH: B12 VH
VL: DIQMTQSPSSLSASVGDRVTITCKSSQSLLDSGNQKNFLTWYLQKPGQSPQLLIYWASTRESGVPSRFSGSGSGTDFTFTISSLEAEDAATYYCQNDYSYPYTFGQGTKVEIKR
notes: also called Clone No. 12
B16: BAP049-hum13 (antibody, human IgG4 S228P, kappa)
heavy: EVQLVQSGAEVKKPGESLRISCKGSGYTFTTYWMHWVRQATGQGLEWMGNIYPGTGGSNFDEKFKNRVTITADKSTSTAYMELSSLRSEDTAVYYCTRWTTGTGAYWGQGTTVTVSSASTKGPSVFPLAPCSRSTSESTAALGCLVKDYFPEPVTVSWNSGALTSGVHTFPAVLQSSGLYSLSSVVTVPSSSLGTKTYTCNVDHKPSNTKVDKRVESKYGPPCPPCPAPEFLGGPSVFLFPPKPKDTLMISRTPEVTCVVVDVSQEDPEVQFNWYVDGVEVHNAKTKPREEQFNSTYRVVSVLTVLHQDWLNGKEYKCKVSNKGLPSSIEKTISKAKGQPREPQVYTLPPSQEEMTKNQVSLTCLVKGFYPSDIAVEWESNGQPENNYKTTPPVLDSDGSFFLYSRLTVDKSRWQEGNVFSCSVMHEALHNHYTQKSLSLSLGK
light: B8 light with I2V, T7S, P15L, E17Q, Q48K, R51K
notes: also called Clone No. 13
B17: Chi mAb (Tyr) (antibody, human IgG4 S228P, kappa, V domains shown)
VH: QVQLQQSGSELVRPGASVKLSCKASGYTFTTYWMHWVRQRPGQGLEWIGNIYPGTGGSNFDEKFKNRTSLTVDTSSTTAYMHLASLTSEDSAVYYCTRWTTGTGAYWGQGTTVTVSS
VL: DIVMTQSPSSLTVTAGEKVTMSCKSSQSLLDSGNQKNFLTWYQQKPGQPPKLLIFWASTRESGVPDRFTGSGSVTDFTLTISSVQAEDLAVYYCQNDYSYPYTFGQGTKVEIKR
notes: also called BAP049-chi-Y; Chi (Tyr)
B18: Mu mAb (antibody, V domains shown)
VH: B17 VH with T112L, S117A
VL: DIVMTQSPSSLTVTAGEKVTMSCKSSQSLLDSGNQKNFLTWYQQKPGQPPKLLIFWASTRESGVPDRFTGSGSVTDFTLTISSVQAEDLAVYYCQNDYSYPCTFGGGTKLEIK
notes: also called murine anti-PD-1 mAb BAP049; Mu mAb control

Substitutions are numbered along the chain they refer to. Some results are limits rather than exact numbers.

For one test, the target named is T1, Programmed Death 1 (PD-1) (UniProt Q15116 25-288, limits assumed). Put plainly: rank of the clone among the 16 humanized clones by FACS binding data; higher number = worse.
T1 sequence (Q15116 25-288 limits assumed): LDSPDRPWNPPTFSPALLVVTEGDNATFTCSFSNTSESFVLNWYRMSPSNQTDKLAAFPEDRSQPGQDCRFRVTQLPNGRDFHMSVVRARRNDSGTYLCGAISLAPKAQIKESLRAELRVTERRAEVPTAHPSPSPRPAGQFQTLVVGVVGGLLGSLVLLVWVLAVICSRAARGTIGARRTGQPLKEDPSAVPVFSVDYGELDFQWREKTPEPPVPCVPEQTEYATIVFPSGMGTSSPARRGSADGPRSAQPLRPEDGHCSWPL
Regarding B1, the “Ranking, FACS data” value was 15.

In the case of B2, the “Ranking, FACS data” value is 7.

Turning to B3, the “Ranking, FACS data” value is 7.

Regarding B4, the “Ranking, FACS data” value is 6.

For the molecule B5, the “Ranking, FACS data” value was 6.

With B6, the “Ranking, FACS data” value is 16.

For B7, the “Ranking, FACS data” value came out at 7.

Consider B8, for which the “Ranking, FACS data” value turned out to be 1.

B9: the “Ranking, FACS data” value is 4.

Regarding B10, the “Ranking, FACS data” value was determined as 14.

For the molecule B11, the “Ranking, FACS data” value was determined as 7.

On to B12, for which the “Ranking, FACS data” value is 5.

Consider B13, for which the “Ranking, FACS data” value worked out at 2.

As for B14, the “Ranking, FACS data” value was 6.

In the case of B15, the “Ranking, FACS data” value was found to be 3.

On to B16, for which the “Ranking, FACS data” value was found to be 6.

A further test deals with T1, Programmed Death 1 (PD-1). Put plainly: rank of the clone in the competition binding assay with labeled murine mAb BAP049, 1st experiment; higher number = worse.
Regarding B1, the “Competition Binding, 1st exp. (rank)” value is 16.

In the case of B2, the “Competition Binding, 1st exp. (rank)” value turned out to be 8.

Take B3: the “Competition Binding, 1st exp. (rank)” value is 6.

On to B4, for which the “Competition Binding, 1st exp. (rank)” value amounted to 7.

With B5, the “Competition Binding, 1st exp. (rank)” value was 4.

Regarding B6, the “Competition Binding, 1st exp. (rank)” value is 7.

As to B7, the “Competition Binding, 1st exp. (rank)” value was 7.

For the molecule B8, the “Competition Binding, 1st exp. (rank)” value worked out at 7.

Regarding B9, the “Competition Binding, 1st exp. (rank)” value worked out at 7.

On to B10, for which the “Competition Binding, 1st exp. (rank)” value was 15.

On to B11, for which the “Competition Binding, 1st exp. (rank)” value was 2.

Take B12: the “Competition Binding, 1st exp. (rank)” value stood at 5.

With B13, the “Competition Binding, 1st exp. (rank)” value stood at 7.

On to B14, for which the “Competition Binding, 1st exp. (rank)” value is 3.

Regarding B15, the “Competition Binding, 1st exp. (rank)” value was determined as 8.

Turning to B16, the “Competition Binding, 1st exp. (rank)” value amounted to 1.

The target in the next test is T1, Programmed Death 1 (PD-1). As to the kind of experiment: FACS blocking of ligand-Ig binding to PD-1, MFI of bound ligand; ligand by the legend paragraph 125 'PD-L1-Ig and PD-L2-Ig' (no ligand named on the sheet; FIG. 8B is PD-L2-Ig, so most likely PD-L1-Ig); cells not named.
For B17, the “IC50 (read off the curve)” value is around 0.8 µg/mL.

As to B18, the “IC50 (read off the curve)” value was around 0.6 µg/mL.

With B11, the “IC50 (read off the curve)” value is around 0.7 µg/mL.

The target in a further test is T1, Programmed Death 1 (PD-1). As to the kind of experiment: rank of the clone in the competition binding assay with labeled murine mAb BAP049, 2nd experiment; higher number = worse.
B1: the “Competition Binding, 2nd exp. (rank)” value worked out at 15.

For the molecule B2, the “Competition Binding, 2nd exp. (rank)” value came out at 14.

On to B3, for which the “Competition Binding, 2nd exp. (rank)” value was above 4.

As to B4, the “Competition Binding, 2nd exp. (rank)” value was 15.

Regarding B5, the “Competition Binding, 2nd exp. (rank)” value is above 4.

Regarding B6, the “Competition Binding, 2nd exp. (rank)” value amounted to 15.

B7: the “Competition Binding, 2nd exp. (rank)” value stood at 4.

On to B8, for which the “Competition Binding, 2nd exp. (rank)” value came to 3.

Regarding B9, the “Competition Binding, 2nd exp. (rank)” value was above 4.

In the case of B10, the “Competition Binding, 2nd exp. (rank)” value stood at 15.

As to B11, the “Competition Binding, 2nd exp. (rank)” value stood at 4.

Regarding B12, the “Competition Binding, 2nd exp. (rank)” value was above 4.

As for B13, the “Competition Binding, 2nd exp. (rank)” value was 2.

With B14, the “Competition Binding, 2nd exp. (rank)” value came to 2.

On to B15, for which the “Competition Binding, 2nd exp. (rank)” value was 16.

With B16, the “Competition Binding, 2nd exp. (rank)” value was 1.
